Test system: MS2 coat protein
Assay: apparent KD of MS2 coat protein; designed switch direction (-1 OFF switch, 1 ON switch): -1; higher = weaker reporter binding
Summary of the method: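 An oligonucleotide input, 200 uM small-molecule ligand, or no input was present during titration of SNAP-549-labelled MS2 coat protein, which was doubled from 0.7 or 1.5 nM to 3 µM. Designed RNA switches had been transcribed on Illumina chips by stalled E. coli RNA polymerase. Apparent KD per design is the median over clusters of curves fitted to normalised cluster fluorescence.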

[1] = input ligand: microRNA oligo, concentration not stated
[2] = Eterna round: R95, input ligand: FMN 200 uM
[3] = Eterna round: R95, input ligand: microRNA oligo, concentration not stated
[4] = Eterna round: R95, input ligand: none

Sequence	apparent KD of MS2 coat protein (input ligand: FMN 200 uM)	apparent KD of MS2 coat protein (input ligand: none)	apparent KD of MS2 coat protein [1]	apparent KD of MS2 coat protein [2]	apparent KD of MS2 coat protein [3]	apparent KD of MS2 coat protein [4]
AGAAGGAAAGUGAGGAUAUGCUCUACCUCGGUAGAGCAGAAGGCACAUGAGGAUCACCCAUGUGACUCCUCAUU [Omei Ex4B B26] (Eterna round: R97, puzzle: Brourd's mod of Exclusion 4)	29.2 nM	19.5 nM	–	–	–	–
AGAAGUAAAUAAGGAUAUCCAUGGGAGAGUGAAGGAGAAGGUAUAAUGUAUUCCAAUGUACCCACUAGGAGUACAAGAUGUUGA [Default title] (Eterna round: R96, puzzle: Exclusion NG 1)	47.9 nM	23.1 nM	4.55 nM	–	–	–
AGAAGUAGAAACCGAUCCUACAUGAGGAUCACCCAUGUAGCAAGACGUGCACGCGAAGCUCGUCAGACUACCAGACG [salish99_TOv1_r3_019] (puzzle: Sensor v3, turn-off variant 1)	–	–	–	152 nM	175 nM	249 nM
AGACAAACUGCAGGAUAUUGGCUGACUGCAGGUCAAGAAGGGCAGGACAUGAGGAUCACCCAUGUUCAGUAAACAGGGAGUCCU [Eternabot solution 14] (Eterna round: R96, puzzle: Exclusion NG 1)	309 nM	46.6 nM	43.7 nM	–	–	–
AGACAACAUGAGGAUCACCCAUGUAAGGAUAUACAAGAUUUGAGAAACGGACUGCCUUGUAGAAGGUACAGGUG [Eternabot (L2) Solution 9] (Eterna round: R97, puzzle: Exclusion 1)	51 nM	36.7 nM	–	–	–	–
AGACCACAUGAGGAUCACCCAUGUCAGGAUAUCGACUGAACAGCUUCGGCUGUUCAGUCGAGAAGGGACAAUUA [Brourdxlusion 8 - Jieux - Exclusion 1] (Eterna round: R97, puzzle: Exclusion 1)	60 nM	52.7 nM	–	–	–	–
AGAGAACAUGAGGAUCACCCAUGUAAGGAUAUGCGAAGAGUUCGGAGAGGUUGAGGAGGCAGAAGGUACAGGAG [JR_Exclu1_Sub042] (puzzle: Exclusion 1)	–	–	–	30.5 nM	31.4 nM	33.1 nM
AGAGACCGAGGAUAUACAUGAGGAUCACCCAUGUUGUUAGGUGAUGGAUUAAUGAUUGGUAGAAGGCGGAGAGA [Seems to work] (Eterna round: R97, puzzle: Exclusion 3)	340 nM	227 nM	–	–	–	–
AGAGAGUCAGGAUAUCGAAGGUAGUGGAGAGGAGUGUGGUACGAGAAGGGACAUGAGGAUCACCCAUGUAGGAG [JR_Exclusion4)Sub008] (puzzle: Exclusion 4)	–	–	–	31 nM	35.4 nM	33.2 nM
AGAGAGUCAGGAUAUCGGUGUGCGAGGAGAGGAGAGAGAGACGAGAAGGGACAUGAGGAUCACCCAUGUAGGUG [JR_Exclusion4)Sub019] (puzzle: Exclusion 4)	–	–	–	366 nM	389 nM	318 nM
AGAGCUGCCCAUGACCGCAAGCUUUUUGCUUGUCUUACCACAUGAGGAUCACCCAUGUGACAUGGGCUCCUUAUAAA [Azavees] (puzzle: Sensor v3, turn-off variant 2)	–	–	–	13.9 nM	9.41 nM	13.3 nM
AGAGUACUGCGAGGAUAUACAUGAGGAUCACCCAUGUAAAAGUGUGAGGCAAAGCCUCACACUAUGUAGAAGGCGCAGUACUCA [Mat - Exclusion NG 2 - Mod of JL - D12] (Eterna round: R96, puzzle: Exclusion NG 2)	19 nM	18.2 nM	9.76 nM	–	–	–
AGAGUAGGCAUAGGAUAUCCGAAAGGAAGUGUAGGAGAAGGAUGUCGAGACAUGAGGAUCACCCAUGUGAUGCUUAGUCGAAAG [PowerStrip EXNG 1.18] (Eterna round: R96, puzzle: Exclusion NG 1)	359 nM	50.8 nM	61.1 nM	–	–	–
AGAGUGCUGCGAGGAUAUACAUGAGGAUCACCCAUGUAUUAGUGUGAGGCAAAGCCUCACACAAUGUAGAAGGCGCAGUACUCA [Mat - Exclusion NG 2 - Mod of JL - D9] (Eterna round: R96, puzzle: Exclusion NG 2)	8.83 nM	18.4 nM	12.2 nM	–	–	–
AGAGUGCUGCGAGGAUAUACAUGAGGAUCACCCAUGUGGAUCUGUGAGGCAAAGCCUCACAGGAUGUAGAAGGCGCAGUACUCA [Mat - Exclusion NG 2 - Mod of JL - D49] (Eterna round: R96, puzzle: Exclusion NG 2)	156 nM	28.9 nM	23.4 nM	–	–	–
AGAGUGUGAGGAUAUAUGGUAAAAGUGAAGAGAGAGGAGGAGUAGAAGGUACAUGAGGAUCACCCAUGUUUGGA [JR_Exclu4_Sub074] (puzzle: Exclusion 4)	–	–	–	–	38.1 nM	–
AGAUAACAUGAGGAUCACCCAUGUGAGGAUAUUUACUCAAGAGCUUCGGCUCUCAGGUGAAGAAGGCGCAAUGA [EX1 #55] (Eterna round: R97, puzzle: Exclusion 1)	44.7 nM	45.7 nM	–	–	–	–
AGAUAGUCAGGAUAUUAGUGGUGGAGGGAUAAUUUUAUUUUUGAGAAGGGACAUGAGGAUCACCCAUGUAAUAU [JR_Ex4_Sub064] (Eterna round: R97, puzzle: Exclusion 4)	33.3 nM	43.5 nM	–	–	–	–
AGAUAGUGCAGAGGAUAUCUUAAUAGAAAGAAUAGAGAAGGCUGACAUGAGGAUCACCCAUGUGAUGUCUUGAGACUACAUGGU [Prohibition 33 - Jieux - Exclusion NG 1] (Eterna round: R96, puzzle: Exclusion NG 1)	–	–	45.9 nM	–	–	–
AGAUAGUGCGGAGGAUAUCUUAAUAGAAAGAAUAGAGAAGGCUGACAUGAGGAUCACCCAUGUGAGGUCUUGAGACUACAUGGU [Prohibition 35 - Jieux - Exclusion NG 1] (Eterna round: R96, puzzle: Exclusion NG 1)	66.3 nM	18.2 nM	12.9 nM	–	–	–
AGAUAUUCGGUAGGAUAUCAGAAAGGAAGUGUAUGAGAAGGACCGAGCCGGAAACCGGUACAUGAGGAUCACCCAUGUGGUCCA [PowerStrip EXNG 1.23] (Eterna round: R96, puzzle: Exclusion NG 1)	20.4 nM	16.4 nM	14 nM	–	–	–
AGAUCAAUCACGAAAGUGAUUGAUCAAAUUAGUUUUUAAACAUGAGGAUCACCCAUGUCCUAGUGGGCUAGUCUUAU [Mat - Sensor v2 - var 2 - Mod - D142] (Eterna round: R96, puzzle: Sensor v2, turn-off variant 2)	254 nM	249 nM	177 nM	–	–	–
AGAUCACAUGAGGAUCACCCAUGUGAGGAUAUGCUUAAACCGUUGAACCCGGUUUGAGGCAGAAGGUGCGAGGG [Eternabot (L2) Solution 37] (Eterna round: R97, puzzle: Exclusion 1)	29.9 nM	21.3 nM	–	–	–	–
AGAUCCUGAGUCAGGAUAUAGAGACGGAAGUCGGGCUAGAAGGGACAUGAGGAUCACCCAUGUGGGUUCGUGCC [Lalaarveti] (puzzle: Brourd's mod of Exclusion 4)	–	–	–	33.5 nM	16.3 nM	23 nM

— the supplement of paper PMC9170038
